The source of these data is article PMC2878840.

This assay concerns the target hypoglycosylated E-cadherin variant V13 (V13-flag) (human). Put plainly: co-IP.

The substance “protein phosphatase 2A catalytic subunit (from UniProt A0A8I3NN81 1-306) (enzyme)” returned a fold change of co-precipitated PP2A against wild type E-cadherin of 2 fold.
